Assay results from publication doi:10.1101/2024.08.22.609182.

Molecular target: AIFM1 OM (obligate monomeric AIFM1 variant, triple mutant in the dimerisation interface) (human) (UniProt O95831)
Assay: mass photometry

Sequence of AIFM1 OM (obligate monomeric AIFM1 variant, triple mutant in the dimerisation interface) (human) (O95831 102-613, change not shown): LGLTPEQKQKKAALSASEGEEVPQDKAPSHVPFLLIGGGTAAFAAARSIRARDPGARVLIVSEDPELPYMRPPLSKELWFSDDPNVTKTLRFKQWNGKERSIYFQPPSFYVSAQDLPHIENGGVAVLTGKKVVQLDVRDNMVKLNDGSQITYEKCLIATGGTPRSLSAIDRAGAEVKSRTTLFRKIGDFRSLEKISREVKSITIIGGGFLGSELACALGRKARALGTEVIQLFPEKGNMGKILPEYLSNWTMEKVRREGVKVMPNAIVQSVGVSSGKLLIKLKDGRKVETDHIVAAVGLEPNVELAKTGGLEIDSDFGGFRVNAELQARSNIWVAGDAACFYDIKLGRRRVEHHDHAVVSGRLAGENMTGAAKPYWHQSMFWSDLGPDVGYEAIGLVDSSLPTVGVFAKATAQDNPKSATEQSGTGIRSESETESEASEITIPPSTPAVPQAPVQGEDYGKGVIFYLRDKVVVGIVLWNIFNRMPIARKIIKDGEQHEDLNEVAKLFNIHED

For “adenylate kinase 2 (AK2), recombinant human (from UniProt P54819 1-239) (enzyme)”, the stoichiometry N (AK2 per AIFM1 (printed as 1:1)) was 1.
